Measured values taken from patent US20200115460A1.

Tests used:
[1] = molecular target: IGF-I receptor (cell line of the PathHunter IGF1R Functional Assay, DiscoverX) (UniProt P08069); test: cell-based or functional assay
[2] = molecular target: insulin receptor (cell line of the PathHunter INSR Functional Assay, DiscoverX) (UniProt P06213); test: cell-based or functional assay

Substance	activation of the IGF-I receptor (PathHunter, solvent group = 100%) at 0.5 nM [1] [%]	activation of the IGF-I receptor (PathHunter, solvent group = 100%) at 5 nM [1] [%]	activation of the IGF-I receptor (PathHunter, solvent group = 100%) at 50 nM [1] [%]	activation of the insulin receptor (PathHunter, solvent group = 100%) at 5 nM [2] [%]	activation of the insulin receptor (PathHunter, solvent group = 100%) at 50 nM [2] [%]
Insulin (ligand)	184	1240	4620		
FLAG M2 antibody		109	109	104	111
